Test results from patent US20120324602A1.

What was measured:
Test in all cases: TAP-MS, N-terminal GS tag
[1] = molecular target: T1, TAF14B, GAS41 (Arabidopsis thaliana)
T1 sequence (Q9FH40 1-268, looked up): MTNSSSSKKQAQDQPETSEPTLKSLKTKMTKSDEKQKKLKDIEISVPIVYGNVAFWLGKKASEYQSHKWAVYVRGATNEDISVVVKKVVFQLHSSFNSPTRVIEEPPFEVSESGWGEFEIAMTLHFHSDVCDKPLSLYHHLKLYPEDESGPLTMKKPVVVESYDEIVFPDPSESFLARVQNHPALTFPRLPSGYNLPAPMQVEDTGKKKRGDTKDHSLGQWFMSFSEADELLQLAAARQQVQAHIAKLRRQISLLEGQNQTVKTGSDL

[2] = molecular target: protein coding (AT5G14240) (Arabidopsis thaliana)
[3] = molecular target: PHD finger protein (AT1G54390) (Arabidopsis thaliana)
[4] = molecular target: chaperonin (AT5G26360) (Arabidopsis thaliana)
[5] = molecular target: T2, SE (SERRATE) (Arabidopsis thaliana)
T2 sequence (Q9ZVD0 1-720, looked up): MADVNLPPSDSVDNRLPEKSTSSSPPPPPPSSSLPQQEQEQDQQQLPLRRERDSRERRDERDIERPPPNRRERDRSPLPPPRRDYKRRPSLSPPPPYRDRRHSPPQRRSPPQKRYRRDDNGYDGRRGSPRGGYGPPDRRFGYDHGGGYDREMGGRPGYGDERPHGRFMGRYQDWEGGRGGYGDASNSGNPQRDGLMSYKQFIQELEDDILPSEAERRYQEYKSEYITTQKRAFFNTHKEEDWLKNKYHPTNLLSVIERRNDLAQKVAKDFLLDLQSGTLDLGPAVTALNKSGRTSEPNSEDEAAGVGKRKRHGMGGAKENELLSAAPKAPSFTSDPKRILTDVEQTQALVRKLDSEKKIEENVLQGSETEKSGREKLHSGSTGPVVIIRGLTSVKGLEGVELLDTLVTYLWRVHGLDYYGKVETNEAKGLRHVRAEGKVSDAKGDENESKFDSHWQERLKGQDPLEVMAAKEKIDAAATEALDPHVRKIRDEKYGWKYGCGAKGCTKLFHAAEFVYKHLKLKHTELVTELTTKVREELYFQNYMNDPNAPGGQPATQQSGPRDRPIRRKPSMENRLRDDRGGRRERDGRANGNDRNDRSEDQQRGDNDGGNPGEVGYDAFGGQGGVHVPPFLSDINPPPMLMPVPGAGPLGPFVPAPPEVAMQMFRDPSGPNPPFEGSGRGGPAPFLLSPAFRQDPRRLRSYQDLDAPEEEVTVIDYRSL

[6] = molecular target: T3, actin-related protein 7 (ARP7) (Arabidopsis thaliana)
T3 sequence (Q8L4Y5 1-363, looked up): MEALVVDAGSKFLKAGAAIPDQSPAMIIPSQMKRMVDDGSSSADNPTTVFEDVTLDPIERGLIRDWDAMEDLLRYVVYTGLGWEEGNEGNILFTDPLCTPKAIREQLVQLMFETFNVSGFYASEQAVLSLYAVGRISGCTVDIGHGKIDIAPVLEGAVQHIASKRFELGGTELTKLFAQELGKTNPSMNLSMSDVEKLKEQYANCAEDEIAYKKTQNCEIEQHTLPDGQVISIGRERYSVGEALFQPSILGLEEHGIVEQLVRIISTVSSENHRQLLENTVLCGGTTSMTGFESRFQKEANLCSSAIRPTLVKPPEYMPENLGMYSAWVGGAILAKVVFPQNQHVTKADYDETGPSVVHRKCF

[7] = molecular target: chaperonin (AT3G02530) (Arabidopsis thaliana)
[8] = molecular target: chaperonin, similar to At3g03960 (AT3G18190) (Arabidopsis thaliana)
[9] = molecular target: T4, actin-related protein 4 (ARP4) (Arabidopsis thaliana)
T4 sequence (Q84M92 1-441, looked up): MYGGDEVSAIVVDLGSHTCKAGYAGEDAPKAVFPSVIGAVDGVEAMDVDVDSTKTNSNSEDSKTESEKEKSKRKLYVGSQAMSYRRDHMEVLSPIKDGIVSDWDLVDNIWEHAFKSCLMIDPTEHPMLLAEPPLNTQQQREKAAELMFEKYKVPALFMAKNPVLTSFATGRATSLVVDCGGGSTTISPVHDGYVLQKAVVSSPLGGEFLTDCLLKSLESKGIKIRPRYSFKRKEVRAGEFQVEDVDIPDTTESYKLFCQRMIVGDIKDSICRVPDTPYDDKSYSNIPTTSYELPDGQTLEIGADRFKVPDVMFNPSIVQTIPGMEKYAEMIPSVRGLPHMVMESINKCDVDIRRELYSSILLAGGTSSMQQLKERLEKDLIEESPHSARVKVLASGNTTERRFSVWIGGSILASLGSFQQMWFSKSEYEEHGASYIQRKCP

[10] = molecular target: chaperonin, similar to At3g18190 (AT3G03960) (Arabidopsis thaliana)
[11] = molecular target: TCP-1 (Arabidopsis thaliana T-complex protein 1 alpha subunit) (Arabidopsis thaliana)
[12] = molecular target: unknown, similar to At5g55210 (AT4G22320) (Arabidopsis thaliana)

Measured: N-GS (times co-purified)

Sequence of TCP-1 (Arabidopsis thaliana T-complex protein 1 alpha subunit) (Arabidopsis thaliana) (P28769 2-545, one chain of several): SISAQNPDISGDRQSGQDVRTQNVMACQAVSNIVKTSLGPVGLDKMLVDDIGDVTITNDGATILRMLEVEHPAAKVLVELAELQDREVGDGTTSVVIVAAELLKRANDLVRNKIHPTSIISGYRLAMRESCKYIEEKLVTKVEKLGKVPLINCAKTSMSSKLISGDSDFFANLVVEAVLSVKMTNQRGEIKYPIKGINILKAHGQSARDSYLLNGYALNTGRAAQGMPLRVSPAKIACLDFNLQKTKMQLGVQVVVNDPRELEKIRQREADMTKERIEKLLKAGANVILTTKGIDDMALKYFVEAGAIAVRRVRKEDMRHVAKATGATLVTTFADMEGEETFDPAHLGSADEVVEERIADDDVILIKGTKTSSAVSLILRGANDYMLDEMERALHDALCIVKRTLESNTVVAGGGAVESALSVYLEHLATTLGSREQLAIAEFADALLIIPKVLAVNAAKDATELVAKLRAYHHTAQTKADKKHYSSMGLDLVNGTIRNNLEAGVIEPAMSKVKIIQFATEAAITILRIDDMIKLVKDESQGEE

B1: GS-ARP4 (protein, UniProt Q84M92 1-441, looked up)
Actin-related protein 4: MYGGDEVSAIVVDLGSHTCKAGYAGEDAPKAVFPSVIGAVDGVEAMDVDVDSTKTNSNSEDSKTESEKEKSKRKLYVGSQAMSYRRDHMEVLSPIKDGIVSDWDLVDNIWEHAFKSCLMIDPTEHPMLLAEPPLNTQQQREKAAELMFEKYKVPALFMAKNPVLTSFATGRATSLVVDCGGGSTTISPVHDGYVLQKAVVSSPLGGEFLTDCLLKSLESKGIKIRPRYSFKRKEVRAGEFQVEDVDIPDTTESYKLFCQRMIVGDIKDSICRVPDTPYDDKSYSNIPTTSYELPDGQTLEIGADRFKVPDVMFNPSIVQTIPGMEKYAEMIPSVRGLPHMVMESINKCDVDIRRELYSSILLAGGTSSMQQLKERLEKDLIEESPHSARVKVLASGNTTERRFSVWIGGSILASLGSFQQMWFSKSEYEEHGASYIQRKCP
modifications: N-terminal GS tag
2: [1] | [2] | [4] | [6]
1: [3] | [5]

B2: GS-ARP7 (protein, UniProt Q8L4Y5 1-363, looked up)
Actin-related protein 7: MEALVVDAGSKFLKAGAAIPDQSPAMIIPSQMKRMVDDGSSSADNPTTVFEDVTLDPIERGLIRDWDAMEDLLRYVVYTGLGWEEGNEGNILFTDPLCTPKAIREQLVQLMFETFNVSGFYASEQAVLSLYAVGRISGCTVDIGHGKIDIAPVLEGAVQHIASKRFELGGTELTKLFAQELGKTNPSMNLSMSDVEKLKEQYANCAEDEIAYKKTQNCEIEQHTLPDGQVISIGRERYSVGEALFQPSILGLEEHGIVEQLVRIISTVSSENHRQLLENTVLCGGTTSMTGFESRFQKEANLCSSAIRPTLVKPPEYMPENLGMYSAWVGGAILAKVVFPQNQHVTKADYDETGPSVVHRKCF
modifications: N-terminal GS tag
1: [9]
2: [2] | [4] | [7] | [8] | [10] | [11] | [12]
